Measurements published in US20240368295A1 (SUTRO BIOPHARMA, published 2024).

T1: BCMA on BCMA-positive NCI-H929, ARP-1 and U266B1 cells (human, UniProt Q02223 1-184)
T1 construct: they are human cell lines; also called B-cell maturation antigen; TNFRSF17
T1 sequence: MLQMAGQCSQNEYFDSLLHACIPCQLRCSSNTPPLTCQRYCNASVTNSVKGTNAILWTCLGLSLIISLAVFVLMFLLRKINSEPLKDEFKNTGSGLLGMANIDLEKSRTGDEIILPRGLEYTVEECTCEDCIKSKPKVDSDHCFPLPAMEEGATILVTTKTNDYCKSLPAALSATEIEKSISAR


Columns and labels:
[1] = molecular target: T1, BCMA on BCMA-positive NCI-H929, ARP-1 …; assay: FACS, NCI-H929 cells
Experimental: (§1) Variants for which sufficient protein was purified in secondary screening were tested in a fluorescence-activated cell sorting (FACS) cell-binding assay. […] 6-12 point dilutions of anti-BCMA variants starting from concentrations of about 100-200 nM antibody were dispensed into each well using a BioMekFX (Beckman Coulter). Cells were then incubated on ice for 1 hr, washed with FACS buffer and incubated for 1 hr on ice with […] FACS buffer containing […] Alexa647-conjugated Goat Anti-Human IgG dispensed using BioMekFX (Beckman Coulter). Cells were then washed 2× with FACS buffer and fixed for 10 minutes in […] PBS with 2% PFA prior to fluorescence detection. Samples were acquired using a Beckton Dickinson LSRII FACS. Geometric Mean Fluorescence Intensity of BCMA antibody binding was analyzed using FlowJo® software (Trec Star, Inc.).

[2] = molecular target: T1, BCMA on BCMA-positive NCI-H929, ARP-1 …; assay: cell-based or functional assay
[3] = molecular target: cynomolgus BCMA on 293T-cynoBCMA cells (cynomolgus, UniProt Q02223 1-184 (human entry)); assay: FACS, 293T-cynoBCMA cells
Experimental: as §1

[4] = molecular target: T1, BCMA on BCMA-positive NCI-H929, ARP-1 …; assay: cell-based or functional assay; remark: listed apart in the source

Chain of cynomolgus BCMA on 293T-cynoBCMA cells (Q02223 other isoform, or with tags, fused parts or gaps): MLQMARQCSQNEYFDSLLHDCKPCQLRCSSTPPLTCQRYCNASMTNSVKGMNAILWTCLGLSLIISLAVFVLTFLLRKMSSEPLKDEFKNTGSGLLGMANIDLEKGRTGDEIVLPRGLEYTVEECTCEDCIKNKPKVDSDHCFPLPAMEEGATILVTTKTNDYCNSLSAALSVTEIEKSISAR

Binder	Bmax (MFI) [1] [MFI]	U266B1, SC225-conjugated 2° antibody cell killing, EC50 [2] [nM]	U266B1, SC225-conjugated 2° antibody cell killing, Span [2] [%]	Bmax (MFI) [3] [MFI]	ARP-1, SC239-conjugated 2° antibody cell killing, EC50 [4] [nM]	ARP-1, SC239-conjugated 2° antibody cell killing, Span [4] [%]	U266B1, SC239-conjugated 2° antibody cell killing, EC50 [4] [nM]	U266B1, SC239-conjugated 2° antibody cell killing, Span [4] [%]
SRP2290-A02 (antibody, IgG1, V domains shown, IgG1 with trastuzumab light chain, His/FLAG-tagged, cell-free expressed; also called Antibody 22) VH: EVQLVESGGGLVQPGGSLRLSCAASGFNISTRWIHWVRQAPGKGLEWVGVITPSAGYTHYADSVKGRFTISAGTSKNTAYLQMNSLRAEDTAVYYCARDLGSRYWVGVFDYWGQGTLVTVSS VL: not shown	33600	1.6	70	70300				
SRP2290-D05 (antibody, IgG1, V domains shown, IgG1 with trastuzumab light chain, His/FLAG-tagged, cell-free expressed; also called Antibody 20) VH: EVQLVESGGGLVQPGGSLRLSCAASGFNIASRWIHWVRQAPGKGLEWVGVITPSAGYTYYADSVKGRFTISADTSKNTAYLQMNSLRAEDTAVYYCARDLGYGYWVGFSDYWGQGTLVTVSS VL: not shown	21800	0.96	50	57600				
SRP2290-C07 (antibody, IgG1, V domains shown, IgG1 with trastuzumab light chain, His/FLAG-tagged, cell-free expressed; also called Antibody 19) VH: EVQLVESGGGLVQPGGSLRLSCAASGFNITYDWIHWVRQAPGKGLEWVGVITPFDGYTYYADSVKGHFTISADTSKNTAYLQMNSLRAEDTAVYYCARDMGVGYWVGFSDYWGQGTLVTVSS VL: not shown		0.93	75	78100				
SRP2290-C08 (antibody, IgG1, V domains shown, IgG1 with trastuzumab light chain, His/FLAG-tagged, cell-free expressed; also called Antibody 21) VH: EVQLVESGGGLVQPGGSLRLSCAASGFNIQPYWIHWVRQAPGKGLEWVGVITPPSGYTYYADSVKGRFTISADTSKNTAYLQMNSLRAEDTAVYYCARDWGVGYWVGFSDYWGQGTLVTVSS VL: not shown	37800	1.1	73	71000				
SRP2290-D02 (antibody, IgG1, V domains shown, IgG1 with trastuzumab light chain, His/FLAG-tagged, cell-free expressed; also called Antibody 18) VH: EVQLVESGGGLVQPGGSLRLSCAASGFNISSYWIHWVRQAPGKGLEWMGVITPAAGYTYYADSVKGRFTISADTSKNTAYLQMNSLRAEDTAVYYCARDLGHRYWVGVFDYWGQGTLVTVSS VL: not shown	33600	1.4	60	75800				
SRP2290-G01 (antibody, IgG1, V domains shown, IgG1 with trastuzumab light chain, His/FLAG-tagged, cell-free expressed; also called Antibody 17) VH: EVQLVESGGGLVQPGGSLRLSCAASGFNISPYWIHWVRQAPGKGLEWVGVITPPSGFTYYADSVKGRFTISADTSKNTAYLQVNSLRAEDTAVYYCARDLGVGYWVGFSDYWGQGTLVTVSS VL: not shown		1.4	70	77100				
SRP2288-A03 (antibody, IgG1, V domains shown, IgG1 with trastuzumab light chain, His/FLAG-tagged, cell-free expressed; also called Antibody 15) VH: EVQLVESGGGLVQPGGSLRLSCAASGFNINNSWIHWVRQAPGKGLEWVGWIYPYIGFTEYADSVKGRFTISADTSKNTAYLQMNSLRAEDTAVYYCARDYDLRYLTGVLDYWGQGTLVTVSS VL: not shown	16300	2.3	42	46800				
SRP2291-A04 (antibody, IgG1, V domains shown, IgG1 with trastuzumab light chain, His/FLAG-tagged, cell-free expressed; also called Antibody 28) VH: EVQLVESGGGLVQPGGSLRLSCAASGFNISSYGIHWVRQAPGKGLEWVGFISPYDGYTEYADSVKGRFTISAGTSKNTAYLQMNSLRAEDTAVYYCARDFNDRYFTYVLDYWGQGTLVTVSS VL: not shown	33900	49	0.8	63800				
SRP2291-A01 (antibody, IgG1, V domains shown, IgG1 with trastuzumab light chain, His/FLAG-tagged, cell-free expressed; also called Antibody 29) VH: EVQLVESGGGLVQPGGSLRLSCAASGFNIDPYTIHWARQAPGKGLEWVAHISPYDGYTDYADSVKGRFTISADTSKNTAYLQMNSLRAEDTAVYYCARDFYDRYSTYVLDYWGQGTLVTVSS VL: not shown	32500	58	1.1	67200				
SRP2291-D07 (antibody, IgG1, V domains shown, IgG1 with trastuzumab light chain, His/FLAG-tagged, cell-free expressed; also called Antibody 26) VH: EVQLVESGGGLVQPGGSLRLSCAASGFNIKDTYIHWVRQAPGKGLEWVGVISPYDGYTEYADSVKGRFTISADTSKNTAYLQMNSLRAEDTAVYYCAHDFYDRYSTYVLDYWGQGTLVTVSS VL: not shown	28700	16	2	67900				
SRP2291-F10 (antibody, IgG1, V domains shown, IgG1 with trastuzumab light chain, His/FLAG-tagged, cell-free expressed; also called Antibody 27) VH: EVQLVESGGGLVQPGGSLRLSCAASGFNIDPYTIHWVRQAPGKGLEWVGWISPYDGYTEYADSVKGRFTISADTSKNTAYLQMNSLRAEDTAVYYCARDYYDRYSTYVLDYWGRGTLVTVSS VL: not shown	33800	46	1	66500				
SRP2291-G05 (antibody, IgG1, V domains shown, IgG1 with trastuzumab light chain, His/FLAG-tagged, cell-free expressed; also called Antibody 24) VH: EVQLVESGGGLVQPGGSLRLSCAASGFNIAAYTIHWVRQAPGKGLEWVGWISPYGGYTEYADSVKGRFTISADTSKNTAYLQMNSLRAEDTAVYYCARDFHDRYATFVLDYWGQGTLVTVSS VL: not shown	23200	20	0.8	62700				
SRP2291-E06 (antibody, IgG1, V domains shown, IgG1 with trastuzumab light chain, His/FLAG-tagged, cell-free expressed; also called Antibody 25) VH: EVQLVESGGGLVQPGGSLRLSCAASGFNISPYTIHWVRQAPGKGLEWVAHIFPSGGYTDYADSVKGRFTISADTSKNTAYLQMNSLRAEDTAVYYCARDFYDRYATYVLDYWGQGTLVTVSS VL: not shown	34400	27	1.1	68300				
9A8 (antibody, V domains shown, chicken HybriFree-derived antibody; also called Antibody 30) VH: AVTLDESGGGLQTPGGTLSLVCKASGFTFSSFNMFWVRQAPGKGLEWVAYIRNDGNSASYGPAVKGRATISRDNGQSTVRLQLNNLRAEDTATYYCAKTTCIGSGGCIDTWGHGTEVIVSS VL: ALTQPSSVSANPGETVKITCSGGSSDYGWFQQKSPGSAPVTVIYSNNQRPSGIPSRFSGSKSGSTGTLTITGVQAEDEAIYYCANVDYTDDVFGAGTTLTVL	21100			17800	2.4	82	2.3	42
11D6 (antibody, V domains shown, chicken HybriFree-derived antibody; also called Antibody 32) VH: AVTLDESGGGLQTPGGTLSLVCKASGFTFSSFNMFWVRQAPGEGLEWVAYIRNDGRSTSYGPAVKGRATISRDNGQSTVRLQLNNLRAEDTGTYFCAKTTCVGSGGCIDTWGHGTEVIVSS VL: ALTQPSSVSANPGETVEITCSGGNSDYGWFQQKSPGSAPVTVIYRNNQRPSDIPSRFSGSGSGSTNTLTITGVQAEDEAIYYCGNVDFTDDVFGAGTTLTVL	26400			27700	3.8	83	1.1	67
10G5 (antibody, V domains shown, chicken HybriFree-derived antibody; also called Antibody 31) VH: AVTLDESGGGLQTPGGVLSLVCKASGFTFSSFNMFWVRQAPGKGLEWVAYISNDGSSTSYGPAVKGRATISRDNGQSTVRLQLNNLRAEDTATYFCAKTTCIGSGGCIDTWGHGTEVIVSS VL: ALTQPSSVSANPGETVKITCSGGNYDYGWYQQKSPGSAPVTLIYYNNKRPSDIPSRFSGSKSGSTGTLTITGVQAEDEAIYYCANVDSTDDVFGAGTTLTVL	25800			24400	3.5	82	1.9	63
